Sequences and labels used below:
B1: Fragment M1–25 of GvpM with NGFP fused at the C-terminus [Halobacterium salinarum] / GvpL with CGFP fused at the C-terminus [Halobacterium salinarum] (parent complex)
chain 1: MEPTKDETHAIVEFVDVLLRDGAVI
chain 2: MTDHRPSPEEEQTTANEERTVSNGRYLYCVVDTTSSESATLSTTGVDDNPVYVVEADGVGAVVHDCETVYETEDLEQVKRWLVTHQQVVDAASDAFGTPLPMRFDTVLEGGDASIERWLEDHYEGFRDELASFAGVWEYRINLLWDSAPFEETIADRDDRLRELRQRQQQSGAGKKFLLEKQSDQRLQELKRERRTELADQLKEAITPVVNDLTEQDTNTPLQDEHSSIEKEQIVRFAVLADEDDETALGDRLDTIVEHEGVEIRFTGPWPPYTFAPDIGK
B2: GvpJ wild type with CGFP fused at the C-terminus [Halobacterium salinarum] / GvpL with NGFP fused at the N-terminus [Halobacterium salinarum] (parent complex)
chain 1: MSDPKPTRSQGDLAEMLEMLLDKGVVVNADIAVSVGDTELLGIELRAAIASFETAAEYGLEFPTGTDMERVESAANISPDQSDPASETQSETESTNPLSDDSTPTASTSAEETK
chain 2: B1 chain 2
B3: GvpM wild type, entire protein, with CGFP fused at the C-terminus [Halobacterium salinarum] / GvpL with NGFP fused at the N-terminus [Halobacterium salinarum] (parent complex)
chain 1: MEPTKDETHAIVEFVDVLLRDGAVIQADVIVTVADIPLIGISLRAAIAGMTTMTEYGLFEEWDAAHRQQSEAFTTSPTADRRED
chain 2: B1 chain 2

One test covers variants of B1. In words: split-GFP; Hfx. volcanii transformants; parent: 65; read off a plot.
In the case of chain 1 R20A, the response is ~54.

With chain 1 V24A, the response was ~74.

As to chain 1 E13A, the response is ~61.

Consider chain 1 V15A, for which the response is ~100.

On to chain 1 H9A, for which the response is ~62.

As to chain 1 I11A, the response is ~84.

For the variant chain 1 I11D, the response was ~110.

For chain 1 P3A, the response is ~84.

As to chain 1 A23D, the response was ~94.

For the variant chain 1 L18A, the response is ~75.

As to chain 1 A10D, the response is ~58.

chain 1 V17A: the response is ~74.

Consider chain 1 D16A, for which the response was ~46.

chain 1 E2A: the response is ~67.

For the variant chain 1 V12Y, the response is ~58.

As to chain 1 G22A, the response was ~86.

Turning to chain 1 F14A, the response is ~57.

On to chain 1 D21A, for which the response was ~67.

Regarding chain 1 L19A, the response was ~81.

Turning to chain 1 E7K, the response is ~80.

Consider chain 1 T8A, for which the response is ~110.

On to chain 1 T4A, for which the response is ~70.

In a further test the parent is B2. In words: split-GFP; Hfx. volcanii transformants; parent: 13; read off a plot.
Turning to chain 1 L21A, the response was ~9.

As for chain 1 G24A, the response was ~7.2.

As for chain 1 D22N, the response was ~14.

For chain 1 M16A, the response is ~9.3.

As for chain 1 A50D, the response was ~17.

chain 1 Y58E: the response was ~7.8.

For the variant chain 1 A47D, the response is ~22.

Take chain 1 V33D: the response is ~17.

Turning to chain 1 V33A, the response is ~18.

As for chain 1 A29D, the response was ~25.

With chain 1 I49A, the response is ~18.

In the case of chain 1 M19E, the response was ~7.

Consider chain 1 E15A, for which the response was ~9.5.

As for chain 1 E69A, the response was ~14.

As for chain 1 L17A, the response was ~14.

Turning to chain 1 S51A, the response was ~17.

For chain 1 E18Q, the response is ~9.

chain 1 E18R: the response is ~9.2.

Consider chain 1 E18A, for which the response was ~9.5.

As for chain 1 E18D, the response was ~14.

In the case of chain 1 K23A, the response was ~14.

With chain 1 K23R, the response was ~14.

Regarding chain 1 L20I, the response was ~14.

Variants of B3 are the subject of the next test. In words: split-GFP; Hfx. volcanii transformants; parent: 7.8; read off a plot.
Take chain 1 V15E: the response is ~6.4.

For the variant chain 1 G22D, the response was ~9.5.

For the variant chain 1 I47A, the response was ~7.1.

As to chain 1 A46E, the response is ~5.6.

As to chain 1 A45E, the response was ~18.

With chain 1 A23D, the response was ~9.7.

The values are drawn from PMC8716928 (2021).
